Test results from patent publication US20220195015A1 (published 2022).

How the values were obtained:
[1] = molecular target: SARS-CoV-2 spike protein on HIV-1 pseudotyped particles (SARS-CoV-2, UniProt P0DTC2 14-1254); assay: cell-based or functional assay
[2] = molecular target: SARS-CoV-2 receptor binding domain (RBD), wild type (SARS-CoV-2, UniProt P0DTC2 319-539); assay: ELISA, RBD coated on the plate, antibody titrated

| Binder | Neutralization IC50 [1] | Neutralization IC90 [1] | EC50 [2] |
| --- | --- | --- | --- |
| C043 (antibody, V domains shown) VH: QLVQSGPEVKKPGTSVKVSCKASGFTFYNSAVQWVRQARGQRLEWVGWIVVGSGNTDYAQKFQERVTMTRDLSTNTAYMEVNSLRSEDTAVYYCAAPYCSGGTCLDGFDIWGQGTMVTVSS VL: EIVLTQSPGTLSLSPGERGTLSCRASQSVRSNYLAWYKQRPGQAPRLLVYGASSRATGIPDRFSGSGSGTDFTLTISRLEPEDFAVYYCQQYGSSPWTFGQGTKVEIK | 0.0106 µg/mL | 0.0744 µg/mL |  |
| C097 (antibody, V domains shown) VH: QVQLQESGPGLVKPSQTLSLTCTVSGGSISSGPYYWSWIRQHPGKGLEWIGYIYYSGSTYYNPSLKSRVTISVDTSKKQFSLNLNSVTAADTAVYYCARVWQYYDSTGSFDYWGQGTLVTVSS VL: DIVMTQSPLSLPVTPGEPASISCRSSRGLLHSNGYNYLDWYLQKPGQSPQLLIYLGSNRASGVPDRFSGSGSVTDFTLNISRVEAEDVGVYYCMQALQTPFTFGPGTKVDIK | 0.0096 µg/mL | 0.0311 µg/mL |  |
| C098 (antibody, V domains shown) VH: EVQLVESGGGLIQPGGSLRLSCAASGFTVSSNYMSWVRQAPGKGLEWVSVIYSGGSTYYADSVKGRFTISRDNSKNTLYLQMNSLRAEDTAVYYCARDLYSSGGTDIWGQGTMVTVSS VL: not shown | 0.479 µg/mL | 4.25 µg/mL |  |
| C099 (antibody, V domains shown) VH: EVQLVESGGGLIQPGGSLRLSCAASGITVSSNYMSWVRQAPGKGLEWVSVMYAGGSTFYADSVKGRFTISRDDSKNTLFLQMNSLRAEDTAIYYCARDLYSSGGTDIWGQGTMVTVSS VL: EIVLTQSPGTLSLSPGERATLSCRASQSIGSSYLAWYQQKPGLAPRLLIYGASRRATGIPDKFSGSGSGADFTLTISRLEPEDFAVYYCQQYGSSPGTFGQGTKVEIK | 0.0272 µg/mL | 0.0861 µg/mL |  |
| C583 (antibody, V domains shown) VH: EVQLVESGGGLIQPGGSLRLSCAASILTVSRNYMSWVRQAPGKGLEWVSSIYSGGTTYYADSVKGRFTISRDDSKNTLYLQMNSLRAEDTAVYYCARPVVGGRAGMDVWGQGTTVTVSS VL: DIQMTQSPSSLSASVGDRVTITCQASQDINKYLNWYQQKPGKAPKLLIYDASNLETGVPSRFSGSGSGTDFTFTISSLQPEDIGTFYCLHNDNPPLTFGGGTKVEIK |  |  | 0.00442 µg/mL |
| C588 (antibody, V domains shown) VH: EVQLVESGGGLVQPGGSLKLSCAASGFTFSGSAMHWVRQASGKGLEWVGRIRNKANSYATAYGASVRGRFTVSRDDSKNTAYLQMNSLKIEDTAVYYCTKDIAAGIPALNWFDSWGQGTLVTVSS VL: EIVLTQSPATLSLSPGERATLSCRASQSVSSYLAWYQQKPGQAPRLLIYDASNRATGIPARFSGSGSGTDFTLTISSLEPEDFAVYYCQQHTNWPPRITFGGGTKVEIK |  |  | 0.00136 µg/mL |
| C593 (antibody, V domains shown) VH: QVQLVQSGAEVKKPGASVKVSCKASGYTFTSYDINWVRQAPGQGLEWMGWMNPNSGNTDYAQKFQGRFTMTRNTSISTAYMELSSLRSEDTAVYYCASRRWDPLTFYYYMVVWGKGTTVTVSS VL: not shown |  |  | 0.00436 µg/mL |
| C582 (antibody, V domains shown) VH: QVQLVESGGGVVQPGRSLRLSCVASGFTFSYFDMHWVRQAPGKGLEWVALISHDGSTTFYGDSARGRFTISRDNSRNTLDLQMNSLRPEDTAVYFCAKPVDAAMFDFWGQGTLVTVS VL: SYELTQPPSVSVAPGKTARITCGGNNIGSKSVHWYQQRPGQAPVLVIYYDSDRPSGIPERFSGSNSGNTATLTISRVEAGDEADFYCQVWDRSTNHLVVFGGGTQLTVL |  |  | 0.00843 µg/mL |
| C585 (antibody, V domains shown) VH: QVQLQESGPGLVKPSETLSLTCTVSGDSISSYFWSWIRQPPGRGLEWIGYIHDSVNTNYNPSLKSRVTISVDTSKSQFSLRLSSVTAADTAVYYCARCAWLRGSFDYWGQGTLVTVSS VL: NFMLTQPHSVSESPGKTVTISCTGSSGSIASNYVQWYQQRPGSAPTTVIYEDNQRPSGVPDRFSGSIDSSSNSASLTISGLKTEDEADYYCQSYDFSSHYVFGTGTKVTVL |  |  | 0.011 µg/mL |
| C044 (antibody, V domains shown) VH: EVQLVESGGGLVQPGGSLRLSCAASGFTFSSYSMNWVRQAPGKGLEWVSYISSSSSTIYYADSVKGRFTISRDNAKNSLYLQMNSLRDEDTAVYYCAREAHDGALTDYGDYLNWFDPWGQGTLVTVSS VL: SYELTQPPSVSVAPGKTARITCGGNNIGSKSVHWYQQKPGQAPVLVIYYDSDRPSGIPERFSGSNSGNTATLTISRVEAGDEADYYCQVWDSSSDHLYWVFGGGTKLTVL | > 10 µg/mL | > 10 µg/mL |  |
| C045 (antibody, V domains shown) VH: EVQLVESGGGLVQPGGSLRLSCAASGFTFSTYSMNWVRQAPGKGLEWVSYISSSSSTIHYADSVKGRFTISRDNAKNSLYLQMNSLRDEDTAVYYCAREAHDGALTDYGDYLNWFDPWGQGTLVTVSS VL: SYELTQPPSVSVAPGKTARITCGGTNIGSKNVHWYQQKPGQAPVLVIYYDNDRPSGIPERFSGSNSGNTATLTISRVEAGDEADYYCQVWDTTSDHFYWVFGGGTKLTVL | > 10 µg/mL | > 10 µg/mL |  |
| C594 (antibody, V domains shown) VH: QVQLVESGGGVVQPGRSLRLSCAASGFTFSSYGMHWVRQAPGKGLEWVAVISDDGSNKYYADSVKGRFTISRDNSKNTLYLQMNSLRAEDTAVYYCAKSWWLSENWFDPWGQGTLVTVSS VL: EIVMTQSPATLSVSPGERATLSCRASQSVSSNLAWYQQKPGQAPRLLIYGASTRATGIPARFSGTGSGTEFTLTISSLQSEDFAVYYCQQYNNWPLTFGGGTKVEIK |  |  | 0.00263 µg/mL |
| C589 (antibody, V domains shown) VH: QVQLQESGPGLVKPSQTLSLTCTVSGGSISSGDYYWSWIRQPPGKGLEWIGYIYYSGSTNYNPSLRSRVTISVDTSKNQFSLRLRSVTAADTAVYYCARDAIGSASYGVEYFQHWGQGTLVTVSS VL: not shown |  |  | 0.00661 µg/mL |
| C587 (antibody, V domains shown) VH: QVQLVQSGAEVKKSGSSVKVSCKASGGSFSSYAISWVRQAPGQGLEWMGGIIPIFGTAKYAQKFQGRVTITADESTSTAYMELSSLRSEDTAVYYCASRWEQLNGGSWHYFDYWGQGTLVTVSS VL: QSALTQPASVSGSPGQSITISCTGTRSDVGRNNLVSWYQHHPGKAPKVMIYEGSKRPSGVSTRFSGSKSGNTASLTISGLQAEDEADYYCCSYAGSSTFEGVFGGGTKLTVL |  |  | 0.00439 µg/mL |
| C591 (antibody, V domains shown) VH: QVQLVQSGAEVKKPGASVKVSCKASGYILTDYFIHWVRQAPGQGLEWMGWINPNSGGTNYAQKFQGRVTMTRDTSISTAYMELSRLRSDDTAVYHCARYKGTTVNTNYYYGMDVWGQGTTVTVSS VL: not shown |  |  | 0.00383 µg/mL |
| C592 (antibody, V domains shown) VH: QVQLVQSGAEVKKPGASVKVSCKASGYTFTDYFNHWVRQAPGQGLEWMGWINPNSGGTNSAQKFQGRVTMTRDTSITTVYMELSRLRSDDTAVYYCARYKGTTVNTNYYYGMDVWGQGTTVTVSS VL: SYELTQPPSVSVSPGQTASITCSGDKLRNKYACWYQQKAGQSPMLVIYQDTKRPSGIPERFSGSNSGNTATLTISGTQAMDEADYYCQAWDISTVVFGGGTKLTVL |  |  | 0.006 µg/mL |
| C590 (antibody, V domains shown) VH: QVQLVQSGAEVKKPGASVKVSCKVSGYNLTELSMYWVRQAPGKGLEWMGGFDPEDGGPIHAQKFQGRVTMTEDPSTDTAYMELRSLRSEDTALYYCATGGLFMIRGLEIWGRGTLVTVSS VL: EIVLTQSPGTLSLSPGERATLSCRASQSISYTSLAWYQQKPGQAPRLLIFGASRGATGTPDRFSGSWSGTDFTLTISRLEPEDFAVYYCQQYGNSPRLSFGGGTKVEIK |  |  | 0.00281 µg/mL |
| C048 (antibody, V domains shown) VH: VQLQESGPGLVKPSETLSLTCAVSGGSVSSGNYYWNWIRQPPGKGLEWIGYIYYSGSTNYNPSLKSRVTISVDTSKNQFSLKLNSVTAADTAVYHCARETYYYDSSGYYISDAFDIWGQGTMVTVSS VL: not shown | 0.0622 µg/mL | 0.523 µg/mL |  |
| C584 (antibody, V domains shown) VH: EVQLVESGGGLVQPGGSLRLSCAASGFTFSTYDMHWVRQATGKGLEWVSAIGTAGDKYYPGSVKGRFTISRENAKNSLYLQMNSLRAGDTAVYYCVRAGYSSGWPLYWYFDLWGRGTLVTVSS VL: DIQMTQSPSSLSASVGDRVTITCRASQSISSYLNWYQQKPGKAPKFLIYAASSLQSGVPSRFSGSGSGTDFTLTISNLQPEDFATYYCQQSYRTPPEFTFGPGTKVDIK |  |  | 0.0105 µg/mL |
| C095 (antibody, V domains shown) VH: VQLVEAGGGVVQPGRSLRLSCAASGLAFSIYGMHWVRQAPGKGLEWVAIVAQDGSKKYYADSVKGRFTISRDNSKNTLYLEMNSLRTEDTAVYYCVKEGRPSDTVVVVAFDYWGQGSLVTVSS VL: DIQLTQSPSSLSASVGDRVTITCRASQSISNYLNWYQQKPGKAPKVIIYAASSLQSGVPSRFSGSGSGTDFTLTISSLQPEDFATYYCQQSHSIPRTFGQGTKVEIK | 0.0113 µg/mL | 0.0526 µg/mL |  |
| C586 (antibody, V domains shown) VH: EVQLVESGGGLIQPGGSLRLSCTASGLIVSSNYMSWIRQAPGKGLEWVSLIYSGGSTFYADSVKGRFTISRDNSKNTLFLHMNSLRAEDTAVYYCARHPYGTDVWGQGTTVTVSS VL: DIQMTQSPSSLSASVGDRVTITCQASQDIVKYLNWYQQKSGKAPKLLIHDASNLETGVTSRFSGSGSGTHFTFTISSLQPEDLATYYCQQYDNLPITFGQGTRLEIK |  |  | 0.00542 µg/mL |
| C049 (antibody, V domains shown) VH: QVQLQESGPGLVKPSETLSLTCTVSGGSVSSGTFYWSWIRQPPGKGLEWIGYIHYSGSTNYNPSLKSRVTISVDTSKNQFSLRLSSVTAADTAVYYCARESFYYDRSGYYGSDAFDIWGQGTMVTVSS VL: DIQMTQSPSTLSSSVGDRVTITCRASQNISRWLAWYQQKPGKAPKLLIYKASTLESGVPSRFSGSGSGTKFTLTISSLQPDDFATYYCQQYNSYLYTFGQGTKLEIK | 0.0181 µg/mL | 0.129 µg/mL |  |
